{"source": "paper PMC11686214", "about": "“Integrative determination of atomic structure of mutant huntingtin exon 1 fibrils implicated in Huntington disease” (Nature Communications, 2024)", "biological_target": "the molecule itself", "assay": "solid-state (MAS) NMR of fibrils; synthetic peptide aggregated at 1 mg/mL in PBS pH 7.4 at 37 °C, harvested by centrifugation after 2-3 weeks; 1H-15N HETCOR, 13 kHz MAS, 275 K", "note": "Square brackets hold non-standard residues; d marks the D form. Ends that are not written are not given here."}
{"protein": "KKQQQQQQQQQQQ[dP]GQQQQQQQQQQQKK (also: two sequential Gln uniformly 13C,15N labelled, positions not given here, written out from the printed formula K2Q11pGQ11K2; p is D-proline; also called polyQ model peptide; source: synthetic peptide (Yale University peptide facility))", "note": "[K2Q11pGQ11K2 polyQ peptide]", "values": [{"measurement": "binding result", "value": "binds"}]}
